Data on one substance can be found in article PMC7144908.

This data set has as its target SV40 large T antigen (Tag) (Simian virus 40) (UniProt P03070). The data set is described as follows: DSF. (In general: DSF heats the sample and reads unfolding from a dye or from intrinsic fluorescence.)

Sequence of SV40 large T antigen (Tag) (Simian virus 40) (P03070 whole entry): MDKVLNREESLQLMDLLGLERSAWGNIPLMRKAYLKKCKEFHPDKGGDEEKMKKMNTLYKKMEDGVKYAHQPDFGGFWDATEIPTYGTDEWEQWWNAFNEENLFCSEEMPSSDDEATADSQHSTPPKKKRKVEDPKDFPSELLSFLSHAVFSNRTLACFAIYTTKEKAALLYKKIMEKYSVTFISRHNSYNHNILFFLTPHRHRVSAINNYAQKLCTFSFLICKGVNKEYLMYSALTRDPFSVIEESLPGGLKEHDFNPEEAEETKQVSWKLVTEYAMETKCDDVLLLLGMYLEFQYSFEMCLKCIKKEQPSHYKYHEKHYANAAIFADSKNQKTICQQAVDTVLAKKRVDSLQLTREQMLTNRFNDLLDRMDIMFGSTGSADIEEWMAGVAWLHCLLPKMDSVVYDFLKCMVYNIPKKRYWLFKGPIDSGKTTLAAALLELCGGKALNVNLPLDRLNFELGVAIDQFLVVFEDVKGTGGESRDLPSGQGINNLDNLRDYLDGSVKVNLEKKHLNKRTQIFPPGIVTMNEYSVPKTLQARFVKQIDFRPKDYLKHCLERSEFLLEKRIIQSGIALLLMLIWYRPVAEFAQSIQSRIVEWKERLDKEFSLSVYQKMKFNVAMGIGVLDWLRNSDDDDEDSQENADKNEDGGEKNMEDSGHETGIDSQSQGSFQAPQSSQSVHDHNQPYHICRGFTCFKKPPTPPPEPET

Regarding Poly(dT), the dissociation constant (Kd) is 40 nM.

A word on the Kd: it is the concentration at which binding is half-saturated. A higher Kd goes with lower affinity.
